The domain aggregation screens of Martell et al. (2025)

Test: soluble fraction after stress (log2 fold change); higher = more stays soluble; pooled small domains, quantitative proteomics
Details: stress: pH 4
Outline: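 Pooled custom libraries of small protein domains were stressed at pH 4 and then measured by high-throughput quantitative proteomics. The fold change in the amount of each domain that stays soluble after the acid stress serves as a measure of aggregation propensity. Fold changes are given on a log2 scale, and higher values mean more of the domain stayed soluble.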

Sequence	soluble fraction (log2)
HMLAERKERDKAELKELILDAAKKILLKNGQEGLSIRKIATTVEYSPATIYLYFKDKDEILHELMEMG	0.151
HMRSISVEMDGKEYLIPTVSENGKVLSDDDAVKQFKKTGKHLDVFDSPEDATAYARQLHEDQESFYA	0.22
HMSRAAQRLFMSQPPLSRHIRQLEDRLGVTLFVRHTRGLTLTEDGQRVLEMVRPLLDLQDKTYAALSQLT	≥ 0.43
HMPGRLSRREVEVIELTARGLPAAEMAVRLGISANTIEFHRRRIMQKLGVANAAEMVRRATELGW	-0.905
HMAQTEIPYSEFLREVGNGQIKSVIIEGSEITGFYKTSGTSFNVVAPDDPKLVERLMDQGVEVRAQPT	0.193
HMETALYVEDLDRAVRFYESVMGLNTMSRGVRLVALDAGEGTVLLLFLRGATTSGASFEGGWIPPH	-0.257
HMTGTVKVNSLNVYKSASLDSEVKDTLVLNTKVTIAENGQVTDGIYVWGRLQSGEGYVQMNNLTL	-1.59
HMEDYYKEDYYTEVLKIPKEYIKGFQYYLIEDAEFVNALNAKNKTMTSFLAKKLASDYIEIIHQEQ	-1.44
HMAAGLTPKQKAFADNYIKNGGNAAEAARAAGYSLKNVGANAGKLLKNPKIAAYIAEKQAELDRRNGT	-0.13
HMQYKVMDVTVDGNPVIEFQNLNSKIKWIENNPDAIIQNIKTSSFEADQKRIVGTSRGPFWIVIKPDF	-0.299
HMPPSVAETLKRLRRHKSLSLEELAQMSGVSRSMLSQIERDATNPTVATLWRITAALGVSIDEVLGV	-0.893
HMGAEWTEMRVWTSTSGSKVTAEASSLTNGQVTLETKSGKRITLSIRKLVEADQKFLEAHFSK	0.101
HMTALISGNKAMQMLELSRHSFEKIVKDGLLSIVHEGDKKYYEIGEVEAFMGSDTYKELVNGV	-0.314
HMQSYSYYDFQKALQNKTVESVIIEPDKTVPTGTLQIQLKGDTKEELNVSDVTEVEELLQSYDVDYKLRSV	0.0751
HMQRVSDKVAAQLRVLVQEQQLKPGDRLPAERALAVQLGVSRTALREAIAQLASQGLLTARVGGGTYVAEP	0.22
HMSLGSSLFHARKKSGLTQEAVAEKLGVSRQTISKWETNETLPDIRQSKGLAMLYHMTLDELIE	0.138
HMSAGYTYQNYQQDLKSGNVQNIHIYLSEEMYSGNVKVIYKNNKSVTFTVTDVTIAEAEARQVGISPIIYE	-0.504
HMDPLGALSDRERQVLALIGQGHGLQAIADQLGVSYKTAANTSSALKKKLGVDGINGLMKFALDSG	0.023
HMGNNTEITYSEFIRQAEAGNVQYVTVDGEKLLISATDGKSYYTINPRDDQMTDRLLNSGVEIRAEPQ	-0.482

Sequence	soluble fraction (log2)
HMGIVYGVIKENWDQDHPGMVKVEILQGESGKNVSDWIPVMSPYAGKEFGAYALPEIGTQAVVAFE	-0.0368
HMGRENGTVKWFNTSKGFGFITRDDGGDVFVHFRSIQGEGHRALQEGQRVSYVVANRDKGLQAEDVTILN	-0.107
HMDLDEELDFLSDADESATKLDLARAYIDMGDKDGARDILAEVLEEGRSEQKREAQALLDSI	-1.76
HMPEPPRVGETLAALRQDRALSLDELSRQAGVSKSMLSQIERNQANPTVAVVWRLANALGVPMAELLGA	-0.192
HMGSVVATLRKLIIDGHYPAGTRLAEIPVANALGVSRTPVRLAFRTLQQEGLLQTVGKRGIVVRAF	0.137
HMTNVDELIGKEAVVVKEIRPYTTGEVKLDGKVWRAMSESKQVYKVDEIVTVLRIEGVTMII	-0.142
HMAAADLNMRAKLADLGGMSYGELSIWEKTHGMEFAAWEHEWEKLNSGTQADGLKFPKHLPEGFPT	0.116
HMAAESWTEKSRALAAAGLVVMGRDAQTKIEELTNLAPLIEAANASNTRLLTSQSIDELLSIVPTEENL	-0.0379
HMSTVEKDSELGGNFRIASYPTGKGQISEAIRSMIVRAKQVGVNIRLNTEATEEPLRALAPNAVILATG	0.18
HMLPVDALFAQHPALIVTLGQTEKLKHGAAIRDWHFADGTYRVYSETGEFLLLGTVKGQILTTVKSFFE	-0.828
HMEINKLIELIGGYKALSEVLNVSKSAISNYKKRGSLPSYAIPIIVKELKSKGISIDLSEFT	-0.0727
HMAQVVMPNVVGKTEKDATATLEGKNLKVNVEYNLDATSDDGIVKEQSIKSGENIDEGTEITLKVNKV	-1.69
HMSMRILNHTVVKILKRYRIATDEQLQPLLDEAERSGRSLQDVVLDAKLVSETELTKLFADYAD	0.421
HMASQFSLIVTQADAGMRLDSLLAVSGAYPSRSAAVKQIEAGKVLVNGLARSKRSIVAPGDTIVYEEIP	-0.0502
HMHGSSVEIPNIYGLPASEAVQLLDKADLRYEVIDSVYTTEVPKGAVYDLSPKAGSRVKAGRIIFLTLNA	-0.075
HMEKRIIMLEELKKQVYEANMELPRRGLITYTWGNVSGIDRESGNFVIKPSGVDYDKLKPEDMVVMDL	0.0555
HMDGVSAEAVKSHIKTLIDGEGAKILSDDTLVDLLNAKGFDIARRTVAKYREAMGIGSSVQRRRQKKMG	-0.0273
HMFDVNSMIAANIVAILKKQNRKQIDLAGALQTNKQTISKMLNGSRMINAIELKRIAEFLGVKMEELTKL	0.0597
HMGGVIEDDRGQWAHPGEVTKINSNNITMKGVDFPVLGISDTGDKKMMQPGKDYKFDGNSVTEYPMA	-0.5
